The text below walks through data of US20100196385A1 (AstraZeneca / MedImmune, published 2010).

For assay [1], the target named is T1, full length human DLL4 (human, UniProt Q9NR61 27-685).
T1 construct: whole, on cells; also called native DLL4 expressed in HEK293 cells
The assay can be described thus: FACS competition vs human Notch1/Fc, HEK293 cells with human DLL4. As for the experimental part: Further experiments were performed on selected antibodies using HEK293 cells that were stably transfected with either human, mouse or cynomolgus monkey DLL4 using retroviral constructs. In these experiments, anti-DLL4 antibodies (final concentration: 10-0.01 μg/ml) diluted in PBS containing 2% FCS were added to DLL4-expressing HEK 293 cells (50000 cells/well diluted in PBS containing 2% FCS) and incubated for 1 h at 4° C. Subsequently, Alexa-647 labeled human, rat or APC labeled mouse Notch1/Fc (e.g. R&D Systems, catalog #3647-TK-050, 1057-TK-050, 5267-TK-050, respectively) was added at a final concentration of 0.01-0.5 μg/ml and plates were incubated for a further 2 h at 4° C. prior to washing and reading on a FACSCalibur instrument.

The target of assay [2] is T1, full length human DLL4. Nature of the assay: FACS titration, HEK293 cells with human DLL4. On the procedure:
The binding affinities of the purified antibodies for DLL4 was estimated using is both FACS and BIAcore techniques. […] The cells were then washed and incubated with goat anti-human IgG-Fc-Cy5+5 μg/mL 7-Amino-Actinomycin (7AAD) for 30 minutes at 4° C.
In this equation, F=mean fluorescence, LT=total molecular mAb concentration, P′=proportionality constant that relates arbitrary fluorescence units to bound mAb, M=cellular concentration in molarity, n=number of receptors per cell, B=background signal, and KD=equilibrium dissociation constant. For each mAb titration curve an estimate for KD is obtained as P′, n, B, and KD are allowed to float freely in the nonlinear analysis. Table 20 summarizes the affinity estimates for the anti-DLL4 antibodies for human and cynomolgus monkey DLL4 derived using the methodology described above

Assay [3] has as its target T2, human soluble DLL4 (R&D systems catalog #1056-D4-050) (human, UniProt Q9NR61 27-524).
T2 construct: Catalog number as printed; perhaps the same product as #1506-D4; also called antigen DLL4
The assay can be described thus: Biacore T100, antibody immobilised, soluble human DLL4 as analyte. As for the experimental part: For Biacore analysis, each purified anti-DLL4 antibody was immobilized on a CM5 sensor chip within a T100 using standard amine coupling. Immobilization levels were kept below 200 RU. The concentration of DLL4 was determined by UV-VIS spectroscopy using a molar absorptivity at 280 nm of 110, 440 M⁻¹cm⁻¹, which was calculated from the sequence of the protein using a method developed by Pace et al. (G. R. Grimsley and C. N. Pace (2003) in Current Protocols in Protein Science (John Wiley & Sons, Inc.), 3.1.1-3.1.9). The antigen DLL4 (R&D systems; human catalog #1056-D4-050 or mouse, catalog #1389-D4-050) was diluted to a starting concentration of 32-64 nM and tested in a 3-fold dilution series in triplicate. The running buffer contained HBS-P with 0.1 mg/ml BSA and binding responses were collected at 23° C. Bound complexes were regenerated with a 15 s pulse of 10 mM of sodium hydroxide. The response data were globally fitted with a simple 1:1 interaction model and Table 20 summarizes the kₐ, kd and KD estimates obtained for the anti-DLL4 antibodies when binding to human soluble DLL4 was assessed.
On the technique in general: In SPR one partner is held on a chip, and binding of the other changes the refractive index at the surface.

T2 sequence (Q9NR61 27-524 limits assumed): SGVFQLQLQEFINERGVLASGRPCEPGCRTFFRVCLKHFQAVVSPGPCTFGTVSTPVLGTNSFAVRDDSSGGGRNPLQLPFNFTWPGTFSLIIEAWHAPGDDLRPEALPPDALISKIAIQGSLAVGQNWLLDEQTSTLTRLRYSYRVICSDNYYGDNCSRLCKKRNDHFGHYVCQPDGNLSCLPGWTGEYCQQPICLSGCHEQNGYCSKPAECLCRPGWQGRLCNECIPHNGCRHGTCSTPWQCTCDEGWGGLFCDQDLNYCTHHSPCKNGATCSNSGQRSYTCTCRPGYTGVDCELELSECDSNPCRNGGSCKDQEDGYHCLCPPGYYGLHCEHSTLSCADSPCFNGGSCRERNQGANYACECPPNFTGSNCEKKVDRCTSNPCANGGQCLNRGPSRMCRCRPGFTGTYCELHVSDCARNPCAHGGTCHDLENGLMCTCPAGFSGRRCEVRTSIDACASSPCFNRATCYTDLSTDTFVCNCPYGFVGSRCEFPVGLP
T1 sequence (Q9NR61 27-685): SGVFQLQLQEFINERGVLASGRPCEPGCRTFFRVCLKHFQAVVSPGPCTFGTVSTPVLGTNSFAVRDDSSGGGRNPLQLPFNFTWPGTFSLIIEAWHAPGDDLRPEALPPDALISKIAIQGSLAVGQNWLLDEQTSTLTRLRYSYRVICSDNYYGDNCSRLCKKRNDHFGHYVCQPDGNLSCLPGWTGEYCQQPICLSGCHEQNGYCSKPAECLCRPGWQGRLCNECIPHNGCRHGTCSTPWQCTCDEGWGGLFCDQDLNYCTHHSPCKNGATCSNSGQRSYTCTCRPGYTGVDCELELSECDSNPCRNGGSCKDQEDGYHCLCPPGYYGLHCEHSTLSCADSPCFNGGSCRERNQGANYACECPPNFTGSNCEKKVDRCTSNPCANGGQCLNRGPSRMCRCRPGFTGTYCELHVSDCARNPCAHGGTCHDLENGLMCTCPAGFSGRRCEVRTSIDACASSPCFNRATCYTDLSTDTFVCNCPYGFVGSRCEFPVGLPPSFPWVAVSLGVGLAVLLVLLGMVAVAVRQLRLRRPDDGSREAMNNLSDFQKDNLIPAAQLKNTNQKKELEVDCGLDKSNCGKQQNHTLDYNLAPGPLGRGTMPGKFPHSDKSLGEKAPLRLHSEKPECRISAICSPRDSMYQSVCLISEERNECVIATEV

B1: 21H3 IgG1 (antibody, V domains shown)
VH: QVQLVQSGAEVKKPGASVKVSCKASGYTFTNYGITWVRQAPGQGPEWMGWISAYNGNTNYAQKLQDRVTVTTDTSTSTAYMELRSLRSDDTAVYYCARDRVPRIPVTTEAFDIWGQGTMVTVSS
VL: QSVLTQPPSASGTPGQRVTISCSGSSSNIGSYFVYWYQQLPGTAPKLLIYRNNQRPSGVPDRFSGSESGTSASLAISGLRSEDEADYYCAAWDDSLSGHWVFGGGTRLTVL
notes: Formatted as IgG1
For orientation: IC50 means the concentration that gives 50% inhibition. Low readings indicate higher potency, high ones lower potency. A word on the Kd: it is the free concentration of one partner at which half of the binding sites on the other are occupied at equilibrium, for simple one-to-one binding. Low readings indicate higher affinity, high ones lower affinity. Broadly, the koff is the rate constant with which the complex falls apart. A lower koff goes with slow dissociation. For orientation: kon means the second-order rate constant of association. Read a low kon as slower complex formation. Take B1: the IC50 with full length human DLL4 [1] worked out at 0.57 nM. Also, the Kd in the assay with full length human DLL4 [2] came out at 0.103 nM. In assay [3], the Kd was determined as 0.594 nM, the koff is 0.000171 s⁻¹ and the kon amounted to 288000 M⁻¹ s⁻¹.

B2: 4B4 IgG1 (antibody, V domains shown)
VH: QVLLIQSGAEVKKPGASVQVSCKASGYTFTNYGVIWVRQAPGQGLEYMGWISAYNGNTNYAQKLQDRVTMTSDTSTTTAYMELRSLRSDDTAVYYCARELGSSFDYWGQGTLVTVSS
VL: SYELTQPPSVSVSPGQTARITCSGDALPKKYAYWYQQKSGQAPVLVIYEDIKRPSGIPERFSGSSSGTMATLTISGAQVEDEADYYCFSTDNSGDHSVFGGGTKLTVL
notes: Formatted as IgG1
For the molecule B2, the IC50 with full length human DLL4 [1] is 0.85 nM. For the same molecule, binding with full length human DLL4 [2] was put at a Kd of 0.157 nM. Further, in assay [3], the Kd worked out at 0.17 nM, the koff came out at 2.01e-05 s⁻¹ and the kon is 118000 M⁻¹ s⁻¹.

B3: 4B4 IgG2 (antibody, V domains shown)
VH: QVLLIQSGAEVKKPGASVQVSCKASGYTFTNYGVIWVRQAPGQGLEYMGWISAYNGNTNYAQKLQDRVTMTSDTSTTTAYMELRSLRSDDTAVYYCARELGSSFDYWGQGTLVTVSS
VL: SYELTQPPSVSVSPGQTARITCSGDALPKKYAYWYQQKSGQAPVLVIYEDIKRPSGIPERFSGSSSGTMATLTISGAQVEDEADYYCFSTDNSGDHSVFGGGTKLTVL
notes: Formatted as IgG2
In the assay with full length human DLL4 [1], B3 came in with an IC50 of 1.19 nM. This molecule also showed a Kd in the assay with full length human DLL4 [2] of 0.232 nM. Besides, in assay [3], the affinity, expressed as Kd, was 0.336 nM; the koff came to 3.6e-05 s⁻¹; the on-rate (kon) turned out to be 107000 M⁻¹ s⁻¹.
